# Tests used:
# Giα2 = target: T1, Giα2 (Homo sapiens, UniProt P04899); assay: GST fusion protein interaction with purified Giα2; type: binding; details: for interaction with Giα2: GST fusion protein ~300 nM, Gα 60-80 nM
# T1 construct: made in house; host or cells: Sf9 insect cells
# Source text: (A) Bioactivity of cDNA #37 and 53 in yeast strains expressing different Gα subunits. The Gpa1, Giα2Gpa1(1-41), Giα3Gpa1(1-41) and Gα16Gpa1(1-41) yeast strains expressed similar amounts of G-protein as determined by immunoblotting with Gpa1-specific antisera. Each series of experiments include data obtained in the absence of Gα to indicate the signal obtained when the action of Gβγ is not limited by reformation of heterotrimer. Data are presented as the mean±S.E.M of three experiments with duplicate determinations. (B) Interaction of AGS2 and AGS3 with G-proteins. AGS2 and the bioactive AGS3 peptide (74 amino acids) beginning at the first in frame methionine were generated as GST-fusion proteins in bacteria and purified using a glutathione affinity matrix. AGS2 and AGS3 GST fusion proteins were incubated with G-protein subunits (Gα=60-80 nM, Gβγ=40 nM, fusion protein=˜300 nM, total volume=250 ul) for 12 hrs at 4° C. GDP=10 uM. GTPγS=10 uM plus 5 mM MgCl2. Proteins were then adsorbed to glutathione matrix and retained G-protein subunits identified by immunoblotting following gel electrophoresis. Giα2 was generated in Sf9 cells as an amino terminal his6-tagged protein and was detected on membrane transfers using anti-Xpress antisera (Invitrogen). Bovine brain Gβγ was detected on membrane transfers with Gβ antisera. Input refers to 20 ul of the incubation mixture. The results presented are representative of four separate experiments. […] C) Effect of G204A Giα2 substitution and RGS4 on the functionality of AGS proteins. The G204A Giα2 yeast strain and the system used for over expression of RGS4 are described in detail in reference 5. Protein expression was confirmed by immunoblotting. AGS 1 was discovered in a similar screen using a human liver cDNA library (5, 7). WT—wild type strain CY1316/1183 containing Giα2 as described for the original yeast screen. RGS4 was overexpressed in the CY1316/1183 yeast strain. […]
# Immunoblotting and G-protein interaction assays. […] Bound proteins were detected by immunoblotting membrane transfers with specific antisera. […]
# [1] = test system: pheromone response pathway; assay: Yeast expression cloning system, growth assay; type: cell-based, Saccharomyces cerevisiae; details: for activity in the presence of Giα2 G204A mutant or RGS4: G204A Giα2 strain or RGS4 overexpression; for growth in yeast expression cloning system: Giα2 yeast strain, selective medium; for function in null Ste5 genetic background: yeast strain lacking Ste5
# Source text: (A) Three cDNA clones (#34, #37 and #53) were isolated from a screen of 1.1×10^6 yeast transformants based upon their ability to promote growth in a galactose-dependent manner in the yeast expression cloning system (5). B) Analysis of the cDNA clones in spot growth assays using yeast strains lacking STE20, STE5 or STE4. Control (Non-induced/no selection)—glucose media lacking uracil and tryptophan (UT). Non-induced/selection—glucose media lacking uracil/tryptophan/histidine (UTH) and containing the histidine analog aminotriazole (AT) at 1 mM. Induced/selection—galactose media lacking UTH and containing 1 mM AT. WT—wild type strain CY1316/1183. cDNA #34 was active in the absence of a functional STE5 and thus was not evaluated (black circles in key) in yeast strains lacking STE4 or STE20. For spot growth assays, ˜2,000 cells suspended in water were spotted on appropriate medium and the plates were incubated at 30° for 2 days prior to photography. Experiments in (A, B) were repeated three times with similar results.
# (A) Bioactivity of cDNA #37 and 53 in yeast strains expressing different Gα subunits. The Gpa1, Giα2Gpa1(1-41), Giα3Gpa1(1-41) and Gα16Gpa1(1-41) yeast strains expressed similar amounts of G-protein as determined by immunoblotting with Gpa1-specific antisera. Each series of experiments include data obtained in the absence of Gα to indicate the signal obtained when the action of Gβγ is not limited by reformation of heterotrimer. Data are presented as the mean±S.E.M of three experiments with duplicate determinations. (B) Interaction of AGS2 and AGS3 with G-proteins. AGS2 and the bioactive AGS3 peptide (74 amino acids) beginning at the first in frame methionine were generated as GST-fusion proteins in bacteria and purified using a glutathione affinity matrix. AGS2 and AGS3 GST fusion proteins were incubated with G-protein subunits (Gα=60-80 nM, Gβγ=40 nM, fusion protein=˜300 nM, total volume=250 ul) for 12 hrs at 4° C. GDP=10 uM. GTPγS=10 uM plus 5 mM MgCl2. Proteins were then adsorbed to glutathione matrix and retained G-protein subunits identified by immunoblotting following gel electrophoresis. Giα2 was generated in Sf9 cells as an amino terminal his6-tagged protein and was detected on membrane transfers using anti-Xpress antisera (Invitrogen). Bovine brain Gβγ was detected on membrane transfers with Gβ antisera. Input refers to 20 ul of the incubation mixture. The results presented are representative of four separate experiments. […] C) Effect of G204A Giα2 substitution and RGS4 on the functionality of AGS proteins. The G204A Giα2 yeast strain and the system used for over expression of RGS4 are described in detail in reference 5. Protein expression was confirmed by immunoblotting. AGS 1 was discovered in a similar screen using a human liver cDNA library (5, 7). WT—wild type strain CY1316/1183 containing Giα2 as described for the original yeast screen. RGS4 was overexpressed in the CY1316/1183 yeast strain. Similar results were obtained in three experiments.
# Generation and screening of cDNA libraries. The NG108-15 cell line was propagated as previously described (4). mRNA was prepared from twenty 100 mm confluent plates of cells and used to generate a cDNA library in the yeast expression vector pYES2. The library was constructed by standard procedures using reagents from Stratagene. Analysis of individual transformants indicated cDNA inserts ranging from 400 to 3000 nt with ˜70-80% of the transformants containing cDNA inserts. The primary transformants were then amplified by solid phase agarose growth for 48 hr and plasmid DNA isolated by column fractionation (Qiagen). The NG108-15 cDNA library was then screened for activators of the pheromone response pathway as described (5). We used a his3 far1 yeast strain containing a genomic integration of the FUS1p-HIS3 reporter construct and lacking both the native pheromone response receptor Ste3 and Gpa1 Gα subunit. […]
# T1 sequence (P04899 whole entry, the tested form may be a part): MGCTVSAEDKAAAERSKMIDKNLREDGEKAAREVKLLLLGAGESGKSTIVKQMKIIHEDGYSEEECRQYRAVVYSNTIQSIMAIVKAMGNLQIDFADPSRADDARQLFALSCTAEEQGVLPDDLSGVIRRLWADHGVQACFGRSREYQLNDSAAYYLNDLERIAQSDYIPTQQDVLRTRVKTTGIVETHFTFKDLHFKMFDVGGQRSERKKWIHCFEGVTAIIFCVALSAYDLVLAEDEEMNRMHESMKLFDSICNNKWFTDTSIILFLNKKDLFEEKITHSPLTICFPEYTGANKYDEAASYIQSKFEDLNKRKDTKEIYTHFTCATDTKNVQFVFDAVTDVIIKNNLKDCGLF
Molecule,interaction with Giα2 (Giα2),activity in the presence of Giα2 G204A mutant or RGS4 [1],growth in yeast expression cloning system [1],function in null Ste5 genetic background [1],activity in yeast strains lacking Ste20 or Ste4 [1],preferred nucleotide-bound conformation of Gα (Giα2; GDP 10 uM versus GTPγS 10 uM)
"AGS2: Activator of G-protein Signalling 2, protein identical to mouse Tctex1, isolated from NG108-15 cDNA library",did not interact,still active,promoted growth in a galactose-dependent manner,did not function,inactive,
"AGS3: Activator of G-protein Signalling 3; bioactive 74 amino acid fragment isolated in yeast screen, tested as GST fusion (protein, left off: a dimerising Fc or GST) MLIKYQSSRIDDQRCPPPDVLPRGPTMPDEDFFSLIQRVQAKRMDEQRVDLAGSPDQEASGLPDPRQQCPPGAS",specifically bound,still active,promoted growth in a galactose-dependent manner,did not function,inactive,preferred the GDP bound conformation

# Reference: patent publication US20030054411A1, “GPR motifs and uses thereof” (priority 2001, published 2003)
